Measurements from the DeepSol protein solubility set.

test: soluble on expression in E. coli; label from the status in PepcDB or PDB records

| Sequence | soluble on expression in E. coli |
| --- | --- |
| MGSSHHHHHHSSGLVPRGSSTYRDIVVKKEDGFTQIVLSTRSTEKNALNTEVIKEIVNALNSAAADDSKLVLFSAAGSVFCCGLDFGYFVKHLRNNRNTASLEMVDTIKNFVNTFIQFKKPIVVSVNGPAIGLGASILPLCDLVWANEKAWFQTPYTTFGQSPDGCSSITFPKMMGKASANEMLIAGRKLTAREACAKGLVSQVFLTGTFTQEVMIQIKELASYNPIVLEECKALVRCNIKLELEQANERECEVLRKIWSSAQGIESMLKIPLLGYKAAFPPRKTQNDQRW | soluble |
| METRRIRKVLVANRGEIAIRVFRACTELGIRTVAIYSKEDVGSYHRYKADEAYLVGEGKKPIEAYLDIEGIIEIAKAHDVDAIHPGYGFLSENIQFAKRCREEGIIFIGPNENHLDMFGDKVKARHAAVNAGIPVIPGSDGPVDGLEDVVAFAEAHGYPIIIKAALGGGGRGMRIVRSKSEVKEAFERAKSEAKAAFGSDEVYVEKLIENPKHIEVQILGDYEGNIVHLYERDCSVQRRHQKVVEVAPSVSLSDELRQRICEAAVQLMRSVGYVNAGTVEFLVSGDEFYFIEVNPRIQVEHTITEMITGIDIVQSQILIADGCSLHSHEVGIPKQEDIRINGYAIQSRVTTEDPLNNFMPDTGKIMAYRSGGGFGVRLDAGNGFQGAVITPYYDSLLVKLSTWALTFEQAARKMLRNLREFRIRGIKTNIPFLENVVQHPKFLSGEYDTSFIDTTPELFVF | soluble |
| MLRLLLRHHFHCLLLCAVWATPCLASPWSTLTANQNPSPPWSKLTYSKPHDAATFYCPFLYPSPPRSPLQFSGFQQVSTGPECRNETLYLLYNREGQTLVERSSTWVKKVIWYLSGRNQTILQRMPQTASKPSDGNVQISVEDAKIFGAHMVPKQTKLLRFVVNDGTRYQMCVMKLESWAHVFRDYSVSFQVRLTFTEANNQTYTFCTHPNLIVLEHHHHHH | not soluble |
| MGSDKIHHHHHHMKTLAQNIQEKLKASGLTQKELAERANISQVMVHKLISGKAKESSKLVAIAGVLGCTAEELMYGLEKHVPTSNAEWAGPMETWDSNTPLNDDEVEIPFYMEVELAAGHGIAEASEYHGPKLRFAKSTLRKSSVDPTNAACVRVSGNSMEPVLPSGSTVGVDTSQTDVIDGKMYAINHDGMLRVKTLYKLPGGGLRLRSYNIDEWPDERYEGEAIKQIKIIGKVFWYSVLM | not soluble |
| MVINQNEAHAIQRIDSDEEPTVSVVDVVATVATPHFDEPLKRKWRLKCAEYGTFMASLLDTDFAEHVTAHQVRCDGVRFKVKLRVEEAKGRSPRFEILAMSPEDSSGVQTLL | not soluble |
| MAHHHHHHMATISRRDGRTAREMRGKELRTSDLSQFDGSAWYSQGLTAVTVAINGPTAARQENYRRCTTCIHVNRAARIPQEGGTGRLIMMERRERERCEDGELKQFLTSLVEAIVCLDRFPRCVLEAHVTVLMDDGALFAVASNAIMCALLDAGVPCRSTIAAVSLIMCNPEASGNEGEPEIFLDPTAVEESTDEVRSYASATFVLTNTGGEAVLASRVQARPRSSAYSRPITPKDLSRMFALAAKAAETLFVFFRNCSMALE | not soluble |
| GSGMRFYVKDHRNKAMINLHIQKDNPKIVHAFDMEDLGDKAVYCRCWRSKKFPFCDGAHTKHNEETGDNVGPLIIKKKET | soluble |
| YHSTDGDTILVGKNNKQNDYLTNKKARKNHLWFHTKDIPGSHVVILNESPSETTIKEAAMLAGYFSKAGSSAQIPVDYTEIRHVHK | not soluble |
| MSLDEDAQISAVQDGFINFYADDAVTPYVALAARGPWVITLKGAVLYDAGGYGMLGFGHTPEAVLDAMARPQVMANVMTPSLAQRKLDRALRAEIGHTRGGCPFARFMCLNSGSEAVGLAARIVDTNAKLHTDPGARHAGATIKRLVVKGSFHGRTDRPGLYSDSSRKTYSKYLASYRDEDSVIAIAPYDIAALQRAFDEAARNHWFIEAVFLEPVMGEGDPGRALPAEFYAAARTLTRNHGSLLLVDSIQAGLRAHGVLSVVDYPGFEQLDPPDLETYSKALNAAQYPLSVLAVTEQAAQVYRKGTYGNTMTTNPRALDVACATLALFTPQIRDNIRLRGAQALRKLEALQAELGGLITKVQGTGLLFSCELAPQYKCYGAGSTEEWLRHHGVNVIHGGENSLRFTPHFGMDEAELDLLVGLIAKALKEGPRQAQAEAEGHHHHHH | not soluble |
| LTFSLNFATSSKDSYGTGWLIDWKGDENKPSNTDPFLIYLATNLHVVDALRNPQDYEPYNKDSNGQDYGNRDITHFFALGKYTDPGLLGVETKE | soluble |
| MIVLPRRLSDEVADRVRALIDEKNLEAGMKLPAERQLAMQLGVSRNSLREALAKLVSEGVLLSRRGGGTFIRWRHDTWSEQNIVQPLKTLMADDPDYSFDILEARYAIEASTAWHAAMRATPGDKEKIQLCFEATLSEDPDIASQADVRFHLAIAEASHNIVLLQTMRGFFDVLQSSVKHSRQRMYLVPPVFSQLTEQHQAVIDAIFAGDADGARKAMMAHLSFVHTTMKRFDEDQARHARITRLPGEHNEHSREKNA | soluble |
| MTRHLAGSFASPPGAEAEGGPVRVTALRAQAFHIPTDLPEADGTFAWNATTLVLVEVEAGGQTGIGYTYSDASIVRLIHHTLAACVIDADAWQVGALWLRMQRQVRNPGRAGLAATAISAVDCALWDLKAKLLGVPLVTLLGAQRANVPIYGSGGFTTYTDEQLREQLVRWVAQDGCRWVKMKIGTHPQEDPQRVAAARAAIGDAGLFVDANGAFSVKEALHYARAFAEQGVEWFEEPVSSDDLRGLALLRERAPARMEIAAGEYAYTLDDFRLLLEAHAVDVLQADVSRCGGVTGFLQAAALCEAFHVPLSAHCAPALHLHVASAVRNLRHQEWFHDHVRIEAMLFDGAPRPSNGAIAPDMARPGCGLAFRHGDAQRYLIH | soluble |
| GSHMTAEADTSSELAKKSKEVFRKEMSQFIVQCLNPYRKPDCKVGRITTTEDFKHLARKLTHGVMNKELKYCKNPEDLECNENVKHKTKEYIKKYMQKFGAVYKPKEDTELE | soluble |
| RAHQRWREHALAVIKDKMYNHIGSILVFLPGVADIRFLLDSLMAQKVEGVKICPLFGELSLKEQQQAIAPCLSGHRKIVLATNIAETSLTIDGIDLVIDCGLEKVAVFDSASLMNKLMQKQISKASAVQRAGRAGRLMHGQCIRLYGKDDFERR | not soluble |
| MDKLNKITVPASQKLRQLQKMVHDIKNNEGGIMNKIKKLKVKAPPSVPRRDYASESPADEEQQWSDDFDSDYENPDEHSDSEMYVMPAEENADDSYEPPPVEQETRPVHPALPFARGEYIDNRSSQRHSPPFSKTLPSKPSWPSEKARLTSTLPALTALQKPQVPPKPKGLLEDEADYVVPVEDNDENYIHPTESSSPPPEKAPMVNRSTKPNSSTPASPPGTASGRNSGAWETKSPPPAAPSPLPRAGKKPTTPLKTTPVASQQNASSVCEEKPIPAERHRGSSHRQEAVQSPVFPPAQKQIHQKPIPLPRFTEGGNPTVDGPLPSFSSNSTISEQEAGVLCKPWYAGACDRKSAEEALHRSNKDGSFLIRKSSGHDSKQPYTLVVFFNKRVYNIPVRFIEATKQYALGRKKNGEEYFGSVAEIIRNHQHSPLVLIDSQNNTKDSTRLKYAVKVS | not soluble |
| MAHHHHHHMCLLDVDEYKHTDTPEPRGEILLRGPFLFKGYYMQEKLTREALDEDGWFHTGDVGSITTHGRLRIIGRVKALAKNVLGEYIALEALESMYAHNALCMPNGVCVLVHPARSYICALVLTDETKAMMFAKEHGIEGSYPDILRDPAFQRKATESMQATARKADRQKFECVRHVRVVGDEWTPENEILTAAGKLKRREIDKRYADVIQLLFVEEC | not soluble |
| MAGDPMSGSKTSAEKKESETEKSSDIAQVKIKDVSYTLPSKYDKSTSDDQLVLKVNVAVKNTGKDPLNVDSMDFTLYQGDTKMSDTDPEDYSEKLQGSTINADKSVEGNLFFVVDKGKQYELNYTPESYGDKKPKSVTFKIDGKDKKILATADKLQDSAKALSAYVDVLLFGKDNADFEKITGANKNEIVNDFNESAKDGYLSASGLSSTYADSKALDNIVNGIKEGLSKNSSIQAKTTSISKDEAIVEATVKPVDASSLSDRIEDKVKDYYSKNSSASYEEAVKYALQVYPEEFKKLGPASSEKTVEVKMKKNDIDQWQLDMDDYRAAELVEAFIKELEHHHHHH | soluble |
| SNAMQIVKKEKFILKEYTFENGRTIPVQMGYETYGTLNRERSNVILICHYFSATSHAAGKYTAHDEESGWWDGLIGPGKAIDTNQYFVICTDNLCNVQVKNPHVITTGPKSINPKTGDEYAMDFPVFTFLDVARMQCELIKDMGIARLHAVMGPSAGGMIAQQWAVHYPHMVERMIGVITNPQNPIITSVNVAQNAIEAIRLDPSWKGGKYGEEQPMKGLQLANRMMFMNAFDEHFYETTYPRNSIEVEPYEKVSSLTSFEKEINKLTYRSIELVDANSWMYTAKAVLLHDIAHGFSSLEEALSNVEANVLMIPCKQDLLQPSRYNYKMVDLLQKQGKYAEVYEIESINGHMAGVFDIHLFEKKVYEFLNRKVSSFV | soluble |
| MSTLADQALHNNNVGPIIRAGDLVEPVIETAEIDNPGKEITVEDRRAYVRIAAEGELILTRKTLEEQLGRPFNMQELEINLASFAGQIQADEDQIRFYFDKTM | soluble |
| MADDGPIIEEIAEKNGRVARIMQRLQHDTQRVTSVPGFNTSATGYADLIALLDQYKNDLEAVGFNDLEQARRRAPSVDITVGSNSTNLVDYSHGRHDMPSHRRHDSSDEEITAANSHHQSPINVGNRNDTDGTNGRNGSRAGSSSSDRVRMIAGRNRISKTRRYRPGQKALEEIRKYQESEDLLIPKAPFARLVREIMQTSTPFSSDLRIRSDAINALQEASEALLVQMFDGSSLISAHSKRATLTTTDVQLYRRLCLPNL | not soluble |
| MPEQDIASLISEHRILLEEAVREVIRRYPQSLSPSENFSKHIFSSEQLKNIIDTVLAEAWQQSAMVVITLCDEKGECVLTYRMPGTSAEDIAVAGRAAEAAVSFAKENKQIIDPTLHNVIGGIDTSRGGCVVYCAGKVIGGIGISGASAEKNHLIALRAVDSLKSGSQK | not soluble |
| MDSDEVRKRKEYAERKVKERHAALRKEAEEKRKHTVEHRERVQSVLKREQIALQKRMQQLNEDEERKKVTLAKQHEVSSRIAAITKSPKSFAFGSSTPRTLAYLDNLPKSEQQYDKKLRPLDQGPSQTTSPTSTTSNTTKMGRLSMTPQRAPPASHRPAPAMASMTTSMYVTSSAPSTRQAKSISKPAAVTTKKVGSMMTQSVYTPTSRPATSSRLTMKQPARGASTSAARPNTATPSSSNNRRSMDQRKPPMPRKLPFGKPEAARKSASPVAAQEPTAPVVVVAPVEAIPEVPAVQEEVLTVEEPAAPAREAVVEEAPEAVVEQEEITVAPEAVVAEEQQIAPEATPTVIEEHHNEVTVAPEAPEIQEPSEPATEPIPEPNEPKDEEIQRNEEMFHEDTSESHLESSTNTSLADELISIGIDQSQEILPSKPEILELHYPLVEEQNAVIAPVGAGEGSGVNDLIGVFGNDFINQNQPPPQQQQQQQRLVQFDEDTDSGKASPTSSETSSTTDEVTPRGAIEEEAAAEKITAPRVLPIVRSAEDIARKEKEIRESEERKSRLAAILAKSRGMASPMTNTLPPTADDIKGRCSHLHPLKRLPKRHRMSLEEQMMCSPVSLR | not soluble |
| MSRPDQAKVTVAKGDIKAIAAALDMYKLDNFAYPSTQQGLEALVKKPTGNPQPKNWNKDGYLKKLPVDPWGNPYQYLAPGTKGPFDLYSLGADGKEGGSDNDADIGNWDN | soluble |
| MYEYCRKRGLYPDAESYPWKSNAHYWLVTNLYQNMRANALADAELRRKAADELTCMTARINRGETIPEPVKQLPVMGGRPLNRAQALAKIAEIKAKFGLKGASVLEHHHHHH | not soluble |
